Results reported in patent US20210317213A1 (AMBRX, published 2021).

B1: Fab1-HK129-Folate (Fab, V domains shown)
VH: EVQLVESGGGLVQPGGSLRLSCAASGFTFNTYAMNWVRQAPGKGLEWVARIRSKYNNYATYYADSVKDRFTISRDDSKNILYLQMNSLKTEDTAVYYCVRHGNFGNSYVSWFAYWGQGTLVTVSS
VL: QAVVTQEPSLTVSPGGTVTLTCRSSTGAVTTSNYANWVQQKPGQAPRGLIGGTNKRAPGTPARFSGSLLGGKAALTLSGAQPEDEAEYYCALWYSNLWVFGGGTKLTVLG
modifications: pAF at HK129 (Kabat) conjugated to folate (oxime)
notes: From E. coli; also called Folate lead; parent control
B2: Fab1-HK129-LL157-BiFolate-Bi5KPEG (Fab, V domains shown)
VH: B1 VH
VL: B1 VL
modifications: pAF at LL157 (Kabat) conjugated to a bifunctional linker carrying folate and 5K PEG (oxime); pAF at HK129 (Kabat) conjugated to a bifunctional linker carrying folate and 5K PEG (oxime)
notes: From E. coli; carries two folates and two 5K PEG; also called Fab1-HK129-LL157-Bi5KPEG-BiFolate

Legend:
[1] = biological target: T1, human CD3 (human, UniProt P07766 23-207); test: cell binding, human CD3 (activated human PBMC); human CD3 (first number of the cell)
T1 construct: whole, on cells; also called CD3 on human T-cells
Method: (§1) Testing for CD3 binding with activated human and cyno PBMC: To distinguish between the humanized anti-CD3 antibodies generated, binding to human CD3 was tested using activated human PBMCs (n=2). The activation of PBMCs and subsequent fluorescence-based CD3 binding assays were followed as described previously (see for example, Angew Chem Int Ed Engl, 52(46):12101-12104, 2013). […] The binding of the remaining 6 humanized antibodies to both human and cyno CD3 using activated human and cyno PBMCs, respectively, was titrated. […] The six (6) humanized anti-CD3 antibodies were obtained as follows: Fab1, Fab2 and Fab3 wildtype were generated by combination of LC ((vL1.2+CL); (SEQ.ID. NO:7)) and HC ((vH1.2+CH1); (SEQ.ID. NO:1)), ((vH1.1+CH1); (SEQ.ID. NO:2)) and ((vH1.0+CH1); (SEQ.ID. NO:3)) respectively. Fab4, Fab 5 and Fab6 wildtype were generated by combination of LC ((vL1.1+CL); (SEQ.ID. NO:8)) and HC ((vH1.2+CH1); (SEQ.ID. NO:1)), ((vH1.1+CH1); (SEQ.ID. NO:2)) and ((vH1.0+CH1); (SEQ.ID. NO:3)) respectively.
(§2) Binding of Folate-conjugated Fabs to human and cyno CD3: Binding of E. coli produced and Folate-conjugated low-affinity variants of humanized anti-CD3 Fabs was performed as described in the above Examples.

[2] = biological target: T2, cyno CD3 (cyno (cynomolgus monkey), UniProt Q95LI5 22-198); test: cell binding, cyno CD3 (activated cyno PBMC); cyno CD3 (second number of the cell)
T2 construct: whole, on cells; also called CD3 on Cynomolgus T-cells
Method: as §1, §2

[3] = biological target: T1, human CD3; test: cell binding, activated human PBMC; E. coli protein
[4] = biological target: Folate receptor-alpha (FOLR1) (human) (UniProt P15328); test: summary table; FRα affinity over CD3 affinity
[5] = biological target: T1, human CD3; test: cell binding, human PBMC
[6] = biological target: T1, human CD3; test: cell binding, human T-cells; design: Bmax: unit not given here
[7] = biological target: T2, cyno CD3; test: cell binding, activated cyno PBMC; E. coli protein
[8] = biological target: T1, human CD3; test: cell binding, activated human PBMC
[9] = biological target: T1, human CD3; test: cell binding, human CD3, 50 nM SFA present
[10] = biological target: T1, human CD3; test: summary table; cell binding EC50, human PBMC
[11] = biological target: Folate receptor-alpha (FOLR1) (human) (UniProt P15328); test: cell binding, FOLRα-expressing KB cells; through the folate moiety
[12] = biological target: Folate receptor-alpha (FOLR1) (human) (UniProt P15328); test: cell binding, SKOV-3 cells with 50 nM SFA; through the folate moiety; SKOV-3 cells, with 50 nM SFA; binding through the conjugated folate
[13] = biological target: T2, cyno CD3; test: cell binding, activated cyno PBMC
[14] = biological target: T2, cyno CD3; test: cell binding, cynomolgus T-cells
[15] = biological target: Folate receptor-alpha (FOLR1) (human) (UniProt P15328); test: summary table; cell binding through the folate moiety
[16] = biological target: T1, human CD3; test: cell binding, human PBMC, 20 nM SFA present
[17] = biological target: T1, human CD3; test: cell binding, human T-cells; assigned to the Bi5KPEG-BiFolate / BiFolate pair from Table 37

T1 sequence (P07766 23-207): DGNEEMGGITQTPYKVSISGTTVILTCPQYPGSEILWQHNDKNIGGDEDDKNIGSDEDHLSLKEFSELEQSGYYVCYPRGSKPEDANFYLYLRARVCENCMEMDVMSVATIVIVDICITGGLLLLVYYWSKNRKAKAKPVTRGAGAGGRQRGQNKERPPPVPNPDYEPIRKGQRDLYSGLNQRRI
Chain of Folate receptor-alpha (FOLR1) (human) (P15328 25-234): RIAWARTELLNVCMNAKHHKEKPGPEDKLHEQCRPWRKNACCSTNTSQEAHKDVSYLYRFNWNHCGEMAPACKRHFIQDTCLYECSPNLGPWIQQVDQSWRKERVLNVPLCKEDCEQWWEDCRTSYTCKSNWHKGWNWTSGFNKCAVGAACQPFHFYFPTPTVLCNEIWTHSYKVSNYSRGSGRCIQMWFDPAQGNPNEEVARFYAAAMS
T2 sequence (Q95LI5 22-198): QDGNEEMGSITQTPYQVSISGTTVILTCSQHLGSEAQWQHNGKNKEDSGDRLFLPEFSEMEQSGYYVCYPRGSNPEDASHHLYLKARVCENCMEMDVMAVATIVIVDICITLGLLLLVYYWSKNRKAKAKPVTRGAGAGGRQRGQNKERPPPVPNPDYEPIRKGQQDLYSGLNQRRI

| Binder | EC50 [1] [nM] | EC50 [2] [nM] | EC50 [3] [nM] | Affinity ratio (FRα:CD3) [4] | EC50 [5] [nM] | Bmax [6] | Kd [6] [nM] | EC50 [7] [nM] | EC50 [8] [nM] | EC50 [9] [nM] | CD3 binding affinity [10] [nM] | Bmax [11] | Kd [11] [nM] | EC50 [12] [nM] | EC50 [13] [nM] | Bmax [14] | Kd [14] [nM] | FRα binding affinity [15] [nM] | EC50 [16] [nM] | fold lower binding affinity (vs the non-pegylated version) [17] [fold] |
| --- | --- | --- | --- | --- | --- | --- | --- | --- | --- | --- | --- | --- | --- | --- | --- | --- | --- | --- | --- | --- |
| B1 | 2.31 | 3.3 | 1.69 | 35 | 2.45 | 30100 | 1.53 | 2.05 | 2.78 | 2 | 1.69 | 101000 | 1.97 | 44.5 | 1.41 | 25700 | 2.69 | 59.6 | – | – |
| B2 | – | – | – | – | – | 15300 | 3.34 | – | – | 7.5 | – | 83100 | 2.28 | – | – | 13200 | 5.01 | – | 5.7 | ~5 |
